Reference: patent US20090246175A1

Experiments:
[1] = target: C3 convertases (C4b2a and C3bBb); test: cell-based or functional assay
[2] = target: classical and lectin pathway C3 convertase C4b2a (human) (UniProt P0C0L4); test: cell-based or functional assay
Chain of UniProt P0C0L4 (P0C0L4 20-1744 limits assumed, chain 1 of 2): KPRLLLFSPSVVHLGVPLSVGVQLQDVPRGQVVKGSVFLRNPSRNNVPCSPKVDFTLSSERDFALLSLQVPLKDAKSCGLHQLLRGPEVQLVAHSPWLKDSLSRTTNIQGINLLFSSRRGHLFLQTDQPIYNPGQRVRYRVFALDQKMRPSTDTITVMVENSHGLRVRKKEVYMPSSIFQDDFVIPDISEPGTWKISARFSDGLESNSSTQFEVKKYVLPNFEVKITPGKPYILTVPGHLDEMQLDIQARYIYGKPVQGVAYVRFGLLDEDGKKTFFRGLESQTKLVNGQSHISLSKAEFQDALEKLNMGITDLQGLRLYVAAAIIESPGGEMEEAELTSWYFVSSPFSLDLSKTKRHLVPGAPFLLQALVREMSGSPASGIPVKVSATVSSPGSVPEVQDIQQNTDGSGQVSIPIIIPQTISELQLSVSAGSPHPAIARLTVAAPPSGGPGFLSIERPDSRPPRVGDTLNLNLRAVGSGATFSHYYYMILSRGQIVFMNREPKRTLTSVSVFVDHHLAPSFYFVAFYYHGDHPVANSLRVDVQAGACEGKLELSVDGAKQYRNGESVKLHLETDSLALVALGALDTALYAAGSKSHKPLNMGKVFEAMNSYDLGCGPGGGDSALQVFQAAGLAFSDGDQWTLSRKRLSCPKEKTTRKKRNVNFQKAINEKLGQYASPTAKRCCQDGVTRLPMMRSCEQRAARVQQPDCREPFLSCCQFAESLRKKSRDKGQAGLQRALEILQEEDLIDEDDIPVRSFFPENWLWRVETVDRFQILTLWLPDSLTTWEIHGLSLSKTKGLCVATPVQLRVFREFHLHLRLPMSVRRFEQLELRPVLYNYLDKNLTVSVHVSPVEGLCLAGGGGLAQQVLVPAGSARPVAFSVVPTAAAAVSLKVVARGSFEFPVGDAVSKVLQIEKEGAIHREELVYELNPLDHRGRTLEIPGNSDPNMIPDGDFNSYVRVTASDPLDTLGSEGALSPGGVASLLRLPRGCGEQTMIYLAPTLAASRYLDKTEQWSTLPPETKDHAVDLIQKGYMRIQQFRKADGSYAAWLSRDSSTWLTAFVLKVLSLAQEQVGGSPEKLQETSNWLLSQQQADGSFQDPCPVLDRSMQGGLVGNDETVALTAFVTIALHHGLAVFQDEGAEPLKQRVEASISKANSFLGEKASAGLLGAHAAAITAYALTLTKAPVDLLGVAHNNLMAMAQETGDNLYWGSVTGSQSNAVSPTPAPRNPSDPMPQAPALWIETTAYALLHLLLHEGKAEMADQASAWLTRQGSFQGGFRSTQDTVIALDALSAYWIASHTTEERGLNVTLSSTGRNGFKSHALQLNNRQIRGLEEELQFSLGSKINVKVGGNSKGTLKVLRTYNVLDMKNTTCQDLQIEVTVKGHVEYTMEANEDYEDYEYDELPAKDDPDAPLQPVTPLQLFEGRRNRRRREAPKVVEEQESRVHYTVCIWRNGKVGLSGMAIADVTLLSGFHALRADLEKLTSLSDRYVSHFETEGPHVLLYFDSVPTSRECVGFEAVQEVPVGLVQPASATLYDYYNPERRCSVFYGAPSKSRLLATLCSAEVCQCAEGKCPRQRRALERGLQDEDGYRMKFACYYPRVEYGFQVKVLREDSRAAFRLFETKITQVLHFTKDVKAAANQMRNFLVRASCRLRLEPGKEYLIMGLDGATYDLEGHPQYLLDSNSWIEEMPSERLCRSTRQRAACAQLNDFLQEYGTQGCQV
Chain of UniProt P0C0L4 (P06681 244-752 limits assumed, chain 2 of 2, further chain): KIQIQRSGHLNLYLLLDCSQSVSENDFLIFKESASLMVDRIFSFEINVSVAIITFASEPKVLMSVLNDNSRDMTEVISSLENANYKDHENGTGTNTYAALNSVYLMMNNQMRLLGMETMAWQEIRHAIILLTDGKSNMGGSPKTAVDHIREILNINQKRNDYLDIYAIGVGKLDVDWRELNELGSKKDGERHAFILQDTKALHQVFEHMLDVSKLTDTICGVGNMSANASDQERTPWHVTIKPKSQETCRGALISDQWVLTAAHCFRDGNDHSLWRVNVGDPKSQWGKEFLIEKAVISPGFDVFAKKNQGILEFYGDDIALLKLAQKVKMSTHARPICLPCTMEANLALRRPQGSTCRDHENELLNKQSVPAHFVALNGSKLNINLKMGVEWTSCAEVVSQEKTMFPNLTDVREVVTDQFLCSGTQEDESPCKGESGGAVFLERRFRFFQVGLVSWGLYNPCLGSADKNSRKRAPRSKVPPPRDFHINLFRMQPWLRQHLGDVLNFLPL

recombinant SCIN-B (rSCIN-B)
IC50 of phagocytosis of S. aureus by human neutrophils in 10% human sera [1]: 0.8 µg/mL

recombinant SCIN-C (rSCIN-C)
IC50 of phagocytosis of S. aureus by human neutrophils in 10% human sera [1]: 0.12 µg/mL

recombinant Staphylococcal Complement Inhibitor (rSCIN)
C5b-9 and C3b deposition via the CP and LP (ELISA) (% inhibition at 10 µg/ml) [2]: 50
IC50 of phagocytosis of S. aureus by human neutrophils in 10% human sera [1]: 0.3 µg/mL
